Columns and labels:
[1] = target: T1, rHuman HGF R/c-MET/Fc Chimera, CF (R&D Systems Cat#358-MT/CF) (human, UniProt P08581 25-932); assay: ECL Multispot (MSD), antigen spotted; Fab 5 (µM); blank 211
T1 construct: Bought recombinant protein; also called HGF R/Fc; Fc part of the bought chimera not given

[2] = target: T2, rHuman Notch-1/Fc Chimera, CF (R&D Systems Cat#3647-TK) (human, UniProt P46531 19-526); assay: as above
T2 construct: Bought recombinant protein; Fc part of the bought chimera not given

[3] = target: T3, rHuman P-Cadherin/Fc Chimera, CF (R&D Systems Cat#861-PC) (human, UniProt P22223 108-654); assay: as above
T3 construct: Bought recombinant protein; Fc part of the bought chimera not given

[4] = target: T4, rHuman Erythropoietin R/Fc Chimera, CF (R&D Systems Cat#963-ER) (human, UniProt P19235 25-250); assay: as above
T4 construct: Bought recombinant protein; also called EPO R; EPO R/Fc; Fc part of the bought chimera not given
T4 sequence (looked up): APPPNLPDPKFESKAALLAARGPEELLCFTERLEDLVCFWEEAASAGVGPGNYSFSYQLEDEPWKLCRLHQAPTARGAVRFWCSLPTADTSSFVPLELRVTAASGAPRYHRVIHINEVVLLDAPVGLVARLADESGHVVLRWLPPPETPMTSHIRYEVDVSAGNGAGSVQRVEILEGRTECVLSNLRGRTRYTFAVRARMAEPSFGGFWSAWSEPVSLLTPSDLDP

[5] = target: T5, rHuman IGF-1 sR, CF (R&D Systems Cat#391-GR) (human, UniProt P08069 31-932); assay: as above
T5 construct: Bought recombinant soluble receptor; also called insulin-like growth factor-1 soluble receptor

[6] = target: T6, rHuman CD44/Fc Chimera, CF (R&D Systems Cat#3660-CD) (human, UniProt P16070 21-220); assay: as above
T6 construct: Bought recombinant protein; Fc part of the bought chimera not given

[7] = target: T7, rHuman EGF R/Fc Chimera, CF (R&D Systems Cat#344-ER) (human, UniProt P00533 25-645); assay: as above
T7 construct: Bought recombinant protein; Fc part of the bought chimera not given

[8] = target: T8, Recombinant Human DLL4 (R&D Systems Cat#1506-D4/CF) (human, UniProt Q9NR61 27-529); assay: as above
T8 construct: Bought recombinant protein; also called delta-like protein 4; rHuman DLL4

[9] = target: T9, rHuman ErbB2/Fc Chimera, CF (R&D Systems Cat#1129-ER) (human, UniProt P04626 23-652); assay: as above
T9 construct: Bought recombinant protein; Fc part of the bought chimera not given

[10] = target: T10, Recombinant Human DLL4 (R&D Systems Cat#1506-D4/CF) (human, UniProt Q9NR61 27-524); assay: MSD multispot ECL, antigen spotted on plate, Fab 88.1 nM; blank spot 301
T10 construct: Bought from R&D Systems; also called rHuman DLL4; delta-like protein 4

[11] = target: T11, rHuman HGF R/c-MET/Fc Chimera, CF (R&D Systems Cat#358-MT/CF) (human, UniProt P08581 25-932); assay: as above
T11 construct: Bought from R&D Systems; also called HGF R/Fc; hepatocyte growth factor receptor (HGF R/c-Met); not shown: Fc of the bought chimera

[12] = target: T12, rHuman ErbB2/Fc Chimera, CF (R&D Systems Cat#1129-ER) (human, UniProt P04626 23-652); assay: as above
T12 construct: Bought from R&D Systems; also called human epidermal growth factor 2 receptor (ErbB2); not shown: Fc of the bought chimera

[13] = target: T13, rHuman ErbB2/Fc Chimera, CF (R&D Systems Cat#1129-ER) (human, UniProt P04626 23-652); assay: ECL multispot (MSD) assay, spotted antigen; Fab 2.00 (head prints uM)
T13 construct: Bought recombinant protein; Fc part of the bought chimera not given

[14] = target: T14, rHuman CD44/Fc Chimera, CF (R&D Systems Cat#3660-CD) (human, UniProt P16070 21-220); assay: as above
T14 construct: Bought recombinant protein; Fc part of the bought chimera not given

[15] = target: T15, rHuman IGF-1 sR, CF (R&D Systems Cat#391-GR) (human, UniProt P08069 31-932); assay: as above
T15 construct: Bought soluble receptor; The column head prints only 'IGF-1'; also called insulin-like growth factor-1 soluble receptor

[16] = target: T16, rHuman EGF R/Fc Chimera, CF (R&D Systems Cat#344-ER) (human, UniProt P00533 25-645); assay: as above
T16 construct: Bought recombinant protein; Fc part of the bought chimera not given

[17] = target: T17, rHuman Notch-1/Fc Chimera, CF (R&D Systems Cat#3647-TK) (human, UniProt P46531 19-526); assay: as above
T17 construct: Bought recombinant protein; Fc part of the bought chimera not given

[18] = target: T18, rHuman Erythropoietin R/Fc Chimera, CF (R&D Systems Cat#963-ER) (human, UniProt P19235 25-250); assay: as above
T18 construct: Bought recombinant protein; also called EPO R; EPO R/Fc; Fc part of the bought chimera not given
T18 sequence (looked up): T4 sequence (looked up)

[19] = target: T19, rHuman P-Cadherin/Fc Chimera, CF (R&D Systems Cat#861-PC) (human, UniProt P22223 108-654); assay: as above
T19 construct: Bought recombinant protein; Fc part of the bought chimera not given

B1: Fab VH1-46_IGHD6-6*01_IGHJ1*01 S102A/S103P/S104F (APF) & L6_IGKJ1*01 (Fab, V domains shown)
VH: QVQLVQSGAEVKKPGASVKVSCKASGYTFTSYYMHWVRQAPGQGLEWMGIINPSGGSTSYAQKFQGRVTMTRDTSTSTVYMELSSLRSEDTAVYYCAREEYAPFSAEYFQHWGQGTLVTVSS
VL: not shown
notes: Tested as a Fab made in E. coli: VH cloned in Plasmid A (CH1 constant region, His6 and Flag tags), VL in Plasmid C (kappa constant region); also called H:APF & L:wt; APF triple mutant
ECL signal [1]: 309 | ECL signal [2]: 338 | ECL signal [3]: 547 | ECL signal [4]: 423 | ECL signal [5]: 300 | ECL signal [6]: 343 | ECL signal [7]: 356 | ECL signal [8]: 54900 | ECL signal [9]: 401

B2: Fab VH1-46_IGHD3-10*01_IGHJ4*01 & B3_IGKJ1*01 (Fab, V domains shown)
VH: QVQLVQSGAEVKKPGASVKVSCKASGYTFTSYYMHWVRQAPGQGLEWMGIINPSGGSTSYAQKFQGRVTMTRDTSTSTVYMELSSLRSEDTAVYYCAREYYYGSGSYYNDYFDYWGQGTLVTVSS
VL: not shown
notes: Tested as a Fab made in E. coli; VH was cloned into Plasmid A (CH1 constant region, His6 and Flag tags); The kappa VL was cloned into Plasmid C (kappa CL)
ECL signal [10]: 434 | ECL signal [11]: 392 | ECL signal [12]: 200

B3: Fab VH5-51_IGHD5-18*01>3_IGHJ4*01 G100K/G104T & V3-4_IGLJ1*01 (Fab, V domains shown)
VH: EVQLVQSGAEVKKPGESLKISCKGSGYSFTSYWIGWVRQMPGKGLEWMGIIYPGDSDTRYSPSFQGQVTISADKSISTAYLQWSSLKASDTAMYYCARRKYSYTYDYFDYWGQGTLVTVSS
VL: QTVVTQEPSFSVSPGGTVTLTCGLSSGSVSTSYYPSWYQQTPGQAPRTLIYSTNTRSSGVPDRFSGSILGNKAALTITGAQADDESDYYCVLYMGSGISYVFGTGTKVTVL
notes: Tested as a Fab; The constant parts are the same as for the parent Fab (CH1 with His6/Flag tags, lambda CL); also called KT double mutant; H:KT
ECL signal/noise ratio [13]: 3.2 | ECL signal/noise ratio [14]: 3.5 | ECL signal/noise ratio [15]: 3.7 | ECL signal/noise ratio [16]: 3.8 | ECL signal/noise ratio [17]: 1.9 | ECL signal/noise ratio [18]: 4.1 | ECL signal/noise ratio [19]: 4.3

Reference: patent US20120316071A1 (published 2012)
